Data published in the supplement of paper PMC9170038.

System: MS2 coat protein
Test: apparent KD of MS2 coat protein; designed switch direction (-1 OFF switch, 1 ON switch): -1; higher = weaker reporter binding
Procedure, shortened: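 For each design, the apparent KD is the median over clusters of curves fitted to normalised cluster fluorescence. Clusters held RNA switches with common flanks, transcribed on Illumina chips by stalled E. coli RNA polymerase. These were titrated with SNAP-549-labelled MS2 coat protein, doubling from 0.7 or 1.5 nM to 3 µM, without input, with 200 uM small-molecule ligand, or with an oligonucleotide input.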

[1] = input ligand: microRNA oligo, concentration not stated
[2] = Eterna round: R95, input ligand: microRNA oligo, concentration not stated
[3] = Eterna round: R95, input ligand: FMN 200 uM
[4] = Eterna round: R95, input ligand: none

## UAUAUAUAGUAAGGAUAUGUAUUUAUUUUGUAAACAGAAGGUACUGACAUGAGGAUCACCCAUGUUUUAGUGUGGGCAUGUAGA [JMF's solution 22] (Eterna round: R96, puzzle: Exclusion NG 1)
Input ligand: FMN 200 uM
  apparent KD of MS2 coat protein: 0.147 µM
[1]
  apparent KD of MS2 coat protein: 0.0785 µM
Input ligand: none
  apparent KD of MS2 coat protein: 0.141 µM

## GACAUGAGGAUCACCCAUGUAACCUCAUGUAGGAAGGAGAGUAAGGAUAUAUAUGAAGGAAUGAAGUAGAAGGUGCAUAGAGAG [Default title] (Eterna round: R96, puzzle: Exclusion NG 3)
Input ligand: FMN 200 uM
  apparent KD of MS2 coat protein: 0.539 µM
[1]
  apparent KD of MS2 coat protein: 1.35 µM
Input ligand: none
  apparent KD of MS2 coat protein: 0.854 µM

## AUUUUGUGAGGAUAUUAGUUUUAUAAUUUUAUUAGUUUAGCUGAGAAGGCACAUGAGGAUCACCCAUGUAAAUC [JR_Ex4_Sub045] (Eterna round: R97, puzzle: Exclusion 4)
Input ligand: FMN 200 uM
  apparent KD of MS2 coat protein: 0.0425 µM
Input ligand: none
  apparent KD of MS2 coat protein: 0.0229 µM

## AUGAACAAGCUUUUUGCAAACAUGAGGAUCACCCAUGUCUUAUAUCGUACCAUGCUAGGCCCUAGCAUGGUACGAUU [jl sellena mod 2] (Eterna round: R97, puzzle: Sensor, turn-off variant 1)
Input ligand: FMN 200 uM
  apparent KD of MS2 coat protein: 0.0176 µM
Input ligand: none
  apparent KD of MS2 coat protein: 0.0146 µM

## UCAGUGUUAGGAUAUCGAGCAAGUUGAAUAUUUGUCUGUAUCGAGAAGGGACAUGAGGAUCACCCAUGUGAGGC [Eternabot (L1) Solution 65] (Eterna round: R97, puzzle: Exclusion 4)
Input ligand: FMN 200 uM
  apparent KD of MS2 coat protein: 0.245 µM
Input ligand: none
  apparent KD of MS2 coat protein: 0.0699 µM

## CGGUACUGAGGAUAUACAUGAGGAUCACCCAUGUGUUCUAGCUAGCGUACUGGCUAUUGUAGAAGGCGGUGCUG [JL-ex3-3.24 Brourd mod] (puzzle: Exclusion 3)
[2]
  apparent KD of MS2 coat protein: 0.0175 µM

## AGAUCCUGAGUCAGGAUAUAGAGACGGUAGUCGGGCUAGAAGGGACAUGAGGAUCACCCAUGUGGGUUCGGGCC [Zarareso] (puzzle: Brourd's mod of Exclusion 4)
[2]
  apparent KD of MS2 coat protein: 0.0128 µM

## AGAAGACAUGAGGAUCACCCAUGUAAGGAUAUUGGAGGUUAGGGAUGCUGGAGUUGGGCAAGAAGGUACAGGUG [JR_Exclu1_Sub092] (puzzle: Exclusion 1)
[3]
  apparent KD of MS2 coat protein: 0.0469 µM
[2]
  apparent KD of MS2 coat protein: 0.0498 µM
[4]
  apparent KD of MS2 coat protein: 0.081 µM

## CUGGUCCGAGGAUAUAUGAUGUGAAACAUGAGGAUCACCCAUGUAAUAUUAUGGAUGGAAAUAGAAGGCGGACUAG [Mat - Exclusion 5 - JL mod - D36] (puzzle: Exclusion 5)
[3]
  apparent KD of MS2 coat protein: 0.0635 µM
[2]
  apparent KD of MS2 coat protein: 0.0497 µM
[4]
  apparent KD of MS2 coat protein: 0.0652 µM

## GAAAACGCAGAGGAUAUUUCAGAUCAAAGCUGCAAAGAAGGCUGCACAUGAGGAUCACCCAUGUGGUCUUCAAA [jl-ex6-4.02 ViennaUCT mod] (Eterna round: R97, puzzle: Exclusion 6)
Input ligand: FMN 200 uM
  apparent KD of MS2 coat protein: 0.386 µM
Input ligand: none
  apparent KD of MS2 coat protein: 0.0207 µM

## GUACUGACAGGAUAUACAUGAGGAUCACCCAUGUGCCUUAGCGCUACAAAAGUAGCGCGUAGAAGGGUCUGUAC [Omei Ex3 Model Bachelor's Dilema v16] (Eterna round: R97, puzzle: Exclusion 3)
Input ligand: FMN 200 uM
  apparent KD of MS2 coat protein: 0.0224 µM
Input ligand: none
  apparent KD of MS2 coat protein: 0.0147 µM

## AAGUAUAGAGGAUAUAGUAGUUACAACAUGAGGAUCACCCAUGUUCUUCAUAACGUAGUUCUAGAAGGCUGAUAAA [EX-5 Malc#28] (puzzle: Exclusion 5)
[2]
  apparent KD of MS2 coat protein: 0.172 µM

## UCGUUCCGUGUAGGAUAUUGGCCUUCCCUGGGCCGAGAAGGACAUGAGGAUCACCCAUGUAUGUUAUUAUCGCGCGUGGCGCAU [Design 86] (Eterna round: R96, puzzle: Exclusion NG 1)
Input ligand: FMN 200 uM
  apparent KD of MS2 coat protein: 0.0739 µM
[1]
  apparent KD of MS2 coat protein: 0.0145 µM
Input ligand: none
  apparent KD of MS2 coat protein: 0.0184 µM

## AGUAGGUCUACCUUGGUGGAUCUGCAUUAUUCAAGUGUUACAUGAGGAUCACCCAUGUCCUCAUUUGCUCGUCUUAU [JL turnoff v2 99.25] (puzzle: Sensor v3, turn-off variant 2)
[3]
  apparent KD of MS2 coat protein: 0.385 µM
[2]
  apparent KD of MS2 coat protein: 0.0457 µM
[4]
  apparent KD of MS2 coat protein: 0.417 µM

## ACCUCACAUGAGGAUCACCCAUGUCAGGAUAUCUUUUAAAACGCGAAUCGCGUCGCUGAGAGAAGGGACAUUAA [EX1 #21] (Eterna round: R97, puzzle: Exclusion 1)
Input ligand: FMN 200 uM
  apparent KD of MS2 coat protein: 0.0996 µM
Input ligand: none
  apparent KD of MS2 coat protein: 0.0391 µM

## CGGGUUCGUGUUAGGAUAUGCACGCACCCGUAGCGGCAGAAGGAACAUGAGGAUCACCCAUGUGAAUAAGAAAA [BmEX4 A.3] (Eterna round: R97, puzzle: Brourd's mod of Exclusion 4)
Input ligand: FMN 200 uM
  apparent KD of MS2 coat protein: 0.0183 µM
Input ligand: none
  apparent KD of MS2 coat protein: 0.0155 µM

## CAGGACUUAGGAUAUCAUGUGCGAGACAUGAGGAUCACCCAUGUAGGAAGCCGUCGCGGGUGAGAAGGAGGGCGAU [Exclusion 5 S1] (puzzle: Exclusion 5)
[3]
  apparent KD of MS2 coat protein: 0.266 µM
[2]
  apparent KD of MS2 coat protein: 0.277 µM
[4]
  apparent KD of MS2 coat protein: 0.366 µM

## CAUUAAACGGAGGAUAUCCUAUAUAUAAUAAUAGGAGAAGGUCGUACAUGAGGAUCACCCAUGUGUGGACAUGG [something] (puzzle: Exclusion 6)
[3]
  apparent KD of MS2 coat protein: 0.107 µM
[2]
  apparent KD of MS2 coat protein: 0.206 µM
[4]
  apparent KD of MS2 coat protein: 0.249 µM

## UAGAUGGGAGGAUAUGCAUAGAUACAGAUUCAUGUAGUGCUACAUGAGGAUCACCCAUGUAGAAGGCCCGUCUU [JL-ex2-2.20 Mayanne mod] (puzzle: Exclusion 2)
[2]
  apparent KD of MS2 coat protein: 0.0199 µM

## CGUUCGCGAGGAUAUGCAUUCGAGUCCACUACGUGUCUGGGACUUGAGGAUCACCCAAGUAGAAGGCGCCUCAC [salish99_ex2_r4_648] (Eterna round: R97, puzzle: Exclusion 2)
Input ligand: FMN 200 uM
  apparent KD of MS2 coat protein: 0.0839 µM
Input ligand: none
  apparent KD of MS2 coat protein: 0.135 µM

## UAAACCAGAGGAUAUGCGAAUAAAUAAAACUUUUUUUUUUAACAUGAGGAUCACCCAUGUAGAAGGCUGCAAAU [Ex2 #33] (Eterna round: R97, puzzle: Exclusion 2)
Input ligand: FMN 200 uM
  apparent KD of MS2 coat protein: 0.03 µM
Input ligand: none
  apparent KD of MS2 coat protein: 0.0389 µM

## AGACGUCAAGUCAGGAUAUAGAGGCAAGUCCACCGCUAGAAGGGACAUGAGGAUCACCCAUGUAGGGUUUAGCU [Zainsoed] (puzzle: Brourd's mod of Exclusion 4)
[3]
  apparent KD of MS2 coat protein: 0.101 µM
[2]
  apparent KD of MS2 coat protein: 0.157 µM
[4]
  apparent KD of MS2 coat protein: 0.135 µM

## CAUUAUGUUGAGGAUAUGCGCCGGAAAACUGACGCAGAAGGCGACACAUGAGGAUCACCCAUGUCAGUUUUCGA [salish99_ex6_r004_426] (Eterna round: R97, puzzle: Exclusion 6)
Input ligand: FMN 200 uM
  apparent KD of MS2 coat protein: 0.136 µM
Input ligand: none
  apparent KD of MS2 coat protein: 0.273 µM

## UUACGGAUAGAGGAUAUAUUAAGGAAGGUUACGAUAGAAGGCUAGACAUGAGGAUCACCCAUGUAUAUUGGGAU [JR_Ex6_Sub072] (Eterna round: R97, puzzle: Exclusion 6)
Input ligand: FMN 200 uM
  apparent KD of MS2 coat protein: 0.172 µM
Input ligand: none
  apparent KD of MS2 coat protein: 0.144 µM

## CACUGGACAGGAUAUGUUCUUGAGCACUUGAGGAUCACCCAAGUCAUCAAGAACUCAGGCACAGAAGGGUUUAUGG [salish99_ex5_r4_013] (Eterna round: R97, puzzle: Exclusion 5)
Input ligand: FMN 200 uM
  apparent KD of MS2 coat protein: 0.0389 µM
Input ligand: none
  apparent KD of MS2 coat protein: 0.0169 µM

## UACAUGAGGAUCACCCAUGUUUUAUCAUGUGUAAUAAUAAUGUAGGAUAUGUAUUAUUUAUUUUAACAGAAGGACAAUAAUAAA [JMF's solution 1] (Eterna round: R96, puzzle: Exclusion NG 3)
Input ligand: FMN 200 uM
  apparent KD of MS2 coat protein: 0.279 µM
[1]
  apparent KD of MS2 coat protein: 0.265 µM
Input ligand: none
  apparent KD of MS2 coat protein: 0.362 µM
